Reference: patent US20140045176

Experiments:
Assay in all cases: cell_activity
[1] = tested on: ZFN-224 L (CCR5) (Artificial Sequence); conditions: as ZFN pair; T7E1, sorted RFP+GFP+ HEK293; unsorted 12%
[2] = tested on: CCR5 TALEN R (Artificial Sequence); conditions: as TALEN pair; T7E1, sorted RFP+GFP+ HEK293; unsorted 0.5%; 30 C culture
[3] = tested on: Z891 L (CCR5 ZFN) (Artificial Sequence); conditions: as ZFN pair; T7E1, sorted RFP+GFP+ HEK293; unsorted 0.8%
[4] = tested on: CMAH-ZFN L (Artificial Sequence); conditions: as ZFN pair; T7E1, hygromycin-selected porcine ear cells; untreated 3.1%
[5] = tested on: CMAH-ZFN R (Artificial Sequence); conditions: as ZFN pair; T7E1, hygromycin-selected porcine ear cells; untreated 3.1%
[6] = tested on: Thumpd3 ZFN L (Artificial Sequence); conditions: as ZFN pair; T7E1, sorted RFP+GFP+ mouse iPS-derived fibroblasts; unsorted 0.5%
[7] = tested on: CCR5 TALEN L (Artificial Sequence); conditions: as TALEN pair; T7E1, sorted RFP+GFP+ HEK293; unsorted 0.5%; 30 C culture
[8] = tested on: ZFN-224 R (CCR5) (Artificial Sequence); conditions: as ZFN pair; T7E1, sorted RFP+GFP+ HEK293; unsorted 12%
[9] = tested on: Z891 R (CCR5 ZFN) (Artificial Sequence); conditions: as ZFN pair; T7E1, sorted RFP+GFP+ HEK293; unsorted 0.8%
[10] = tested on: Thumpd3 ZFN R (Artificial Sequence); conditions: as ZFN pair; T7E1, sorted RFP+GFP+ mouse iPS-derived fibroblasts; unsorted 0.5%

## GATGAGGATGAC (double strand) [ZFN-224_L half-site]
[1]
  activity: 69 % mutation

## TAGTTTCTGAACTTCTCCCC (double strand) [TALEN_R half-site]
[2]
  activity: 4.3 % mutation

## ATAGATGATGGG (double strand) [Z891_L half-site]
[3]
  activity: 8.7 % mutation

## AAGCAGGACCGA (double strand) [CMAH-ZFN_L half-site]
[4]
  activity: 12.1 % mutation

## CGAGGATGGTGG (double strand) [CMAH-ZFN_R half-site]
[5]
  activity: 12.1 % mutation

## CGAGCACGCCGC (double strand) [Thumpd3_L half-site]
[6]
  activity: 46 % mutation

## TGCATCAACCCCATCATC (double strand) [TALEN_L half-site]
[7]
  activity: 4.3 % mutation

## AAACTGCAAAAG (double strand) [ZFN-224_R half-site]
[8]
  activity: 69 % mutation

## GTCGGGGAGAAG (double strand) [Z891_R half-site]
[9]
  activity: 8.7 % mutation

## GGAGACCGGAAG (double strand) [Thumpd3_R half-site]
[10]
  activity: 46 % mutation
